Data from patent US20190233512A1 (SUTRO BIOPHARMA, published 2019).
Numbering of substitutions follows the chain as printed.

B1: SRP1848-A02 (antibody, V domains shown)
VH: EVQLVESGGGLVQPGGSLRLSCAASGFNISGFRIHWVRQAPGKGLEWVAGIYPESGATYYADSVKGRFTISADTSKNTAYLQMNSLRAEDTAVYYCARHLYVWDWVLDHVLDYWGQGTLVTVSS
VL: not shown
notes: VH/VL only; Fc-bearing IgG format with trastuzumab LC, HIS/FLAG-tagged, cell-free expressed; constant regions not tied; also called Antibody 2
B2: SRP1848-E03 (antibody, V domains shown)
VH: EVQLVESGGGLAQPGGSLRLSCAASGFNIGNYYIHWVRQAPGKGLEWVGGITPRDGFTDYADSVKGRFTISADTSKNTAYLQVNSLRAEDTAVYYCARGSWSWPAGHSYYLDYWGQGTLVTVSS
VL: not shown
notes: VH/VL only; Fc-bearing IgG format with trastuzumab LC, HIS/FLAG-tagged, cell-free expressed; constant regions not tied; also called Antibody 33
B3: SRP1848-E07 (antibody, V domains shown)
VH: EVQLVESGGGLVQPGGSLRLSCAASGFNIRKSSIHWVRQAPGKGLEWVGEIFPYDGSTDYADNVKGRFTISADTSKNTAYLQMNSLRAEDTAVYYCARGAWSWRSGYGYYIDYWGQGTLVTVSS
VL: not shown
notes: VH/VL only; Fc-bearing IgG format with trastuzumab LC, HIS/FLAG-tagged, cell-free expressed; constant regions not tied; also called Antibody 36
B4: SRP1848-F11 (antibody, V domains shown)
VH: EVQLVESGGGLVQPGGSLRLSCAASGFNISNNYIHWVRQAPGKGLEWVGGITPIDGNTDYADSVKGRFTISADTSMNTAYLQMNSLRAEDTAVYYCARGSWYWRAGYGYYLDYWGQGALVTVSS
VL: not shown
notes: VH/VL only; Fc-bearing IgG format with trastuzumab LC, HIS/FLAG-tagged, cell-free expressed; constant regions not tied; also called Antibody 46
B5: SRP1848-F02 (antibody, V domains shown)
VH: EVQLVESGGGLVQPGGSLRLSCAASGFNIRTYSIHWVRQAPGKGLEWVGSIFPNDGTTDYADSVKGRLTISADTSKNTAYLQMNSLRAEDTAVYYCARGSWSWQAGYGYYLDYWGQGTLVTVSS
VL: not shown
notes: VH/VL only; Fc-bearing IgG format with trastuzumab LC, HIS/FLAG-tagged, cell-free expressed; constant regions not tied; also called Antibody 38
B6: SRP1848-F07 (antibody, V domains shown)
VH: EVQLVESGGGLVQPGGSLRLSCAASGFNISNHSIHWVRQAPGKGLEWVGEIYPNDGITDYADSVKGRFTISADTSKNTAYLQMNSLSAEDTAVYYCARGSWDWRSGYSYYLDYWGQGTLVTVSS
VL: not shown
notes: VH/VL only; Fc-bearing IgG format with trastuzumab LC, HIS/FLAG-tagged, cell-free expressed; constant regions not tied; also called Antibody 42
B7: SRP1848-F10 (antibody, V domains shown)
VH: B6 VH with H32N, E50S, Y52F, I57Y, S87R, D102F, S108G
VL: not shown
notes: VH/VL only; Fc-bearing IgG format with trastuzumab LC, HIS/FLAG-tagged, cell-free expressed; constant regions not tied; also called Antibody 45
B8: SRP1848-F05 (antibody, V domains shown)
VH: B6 VH with N31K, H32S, I57S, S87R, D102A, Y110F
VL: not shown
notes: VH/VL only; Fc-bearing IgG format with trastuzumab LC, HIS/FLAG-tagged, cell-free expressed; constant regions not tied; also called Antibody 40
B9: SRP1848-G03 (antibody, V domains shown)
VH: B2 VH with A12V, G30S, N31T, R54S, F68S, V83M, A105S, S108G, Y110F
VL: not shown
notes: VH/VL only; Fc-bearing IgG format with trastuzumab LC, HIS/FLAG-tagged, cell-free expressed; constant regions not tied; also called Antibody 48
B10: SRP1848-H01 (antibody, V domains shown)
VH: B5 VH with Y32Q, V48I, S50D, N54I, T57I, L68F, Q104P, A105S, Y107M, G108D
VL: not shown
notes: VH/VL only; Fc-bearing IgG format with trastuzumab LC, HIS/FLAG-tagged, cell-free expressed; constant regions not tied; also called Antibody 55
B11: SRP1848-F01 (antibody, V domains shown)
VH: B5 VH with L68F, S102A, Q104R, G108S
VL: not shown
notes: VH/VL only; Fc-bearing IgG format with trastuzumab LC, HIS/FLAG-tagged, cell-free expressed; constant regions not tied; also called Antibody 37
B12: SRP1848-G01 (antibody, V domains shown)
VH: B6 VH with N31R, E50W, Y52A, I57S, S87R, D102A, Y110F
VL: not shown
notes: VH/VL only; Fc-bearing IgG format with trastuzumab LC, HIS/FLAG-tagged, cell-free expressed; constant regions not tied; also called Antibody 47
B13: SRP1848-F09 (antibody, V domains shown)
VH: B3 VH with R30S, K31N, S32H, S33Y, E50G, F52S, Y54L, S57Y, N63S
VL: not shown
notes: VH/VL only; Fc-bearing IgG format with trastuzumab LC, HIS/FLAG-tagged, cell-free expressed; constant regions not tied; also called Antibody 44

molecular target: T1, Human folate receptor alpha (hFOLR1) (human, UniProt P15328 25-234); test: FACS, CHO-hFOLR1 cells
T1 construct: Stably expressed on CHO cells (CHO-hFOLR1) for flow cytometry; endogenous on FOLR1-positive KB and Igrov1 cells in the killing assay; also called human FOLR1; FolRα
T1 sequence (P15328 25-234 limits assumed): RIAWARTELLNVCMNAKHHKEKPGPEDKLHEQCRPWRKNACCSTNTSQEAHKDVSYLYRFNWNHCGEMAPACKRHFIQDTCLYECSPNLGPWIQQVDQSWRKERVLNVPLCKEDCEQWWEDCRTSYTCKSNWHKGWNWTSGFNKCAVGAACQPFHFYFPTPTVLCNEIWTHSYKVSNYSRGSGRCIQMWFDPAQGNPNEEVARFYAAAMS
Protocol: CHO cells were transfected to stably express human (CHO-hFOLR1), cynomolgus (CHO-cFOLR1), or mouse (CHO-mFOLR1) target molecule FOLR1 on the cell surface. Parental CHO cells were used as a negative control to determine background binding levels. Parental CHO and stably transfected CHO-hFOLR1, CHO-cFOLR1, and CHO-mFOLR1 cells were cultured in Ham's F-12: high glucose DMEM (50:50) (Corning, Cellgro-Mediatech) supplemented with 10% heat-inactivated fetal bovine serum (Corning, Cellgro-Mediatech), 1% Penicillin/Streptomycin (Corning, Cellgro-Mediatech) and 2 mmol/L-glutamax (Life Technology).
A mixture of fluoresecent-labeled parental CHO cells and unlabeled CHO-hFOLRlcells were prepared as follows. Parental CHO cells were washed twice in PBS and incubated in PBS containing with 1 nM CellTrace™ Oregon Green488® (Life Technologies) at 37° C. for 30 minutes. Labeled parental CHO cells were then washed 2× with Ham's F-12 media and 2× with FACS buffer (PBS with 1% bovine serum albumin). Unlabeled CHO-hFOLR1 cells were similarly washed and prepared. Labeled parental CHO and unlabeled CHO-hFOLR1 cells were combined at 1:1 ratio and seeded at 50 μL per well (200,000 cells per well) in 96 well polypropylene plates. Cells were mixed with 50 μL of test antibodies (i.e., anti-FOLR1 variants) serially diluted in FACS buffer and incubated on ice for 60 mins. Cells were washed with FACS buffer and incubated on ice for 60 mins with 100 μL FACS buffer containing 2.5 μg/mL R-Phycoerythrin-conjugated goat anti-Human IgG (Jackson ImmunoResearch Laboratories, West Grove, Pa.). Cells were washed twice with FACS buffer, fixed in 2% paraformaldehyde in PBS (Santa Cruz Biotechnology; Dallas, Tex.) for 10 mins on ice in the dark, and analyzed using the BD LSR II Flow Cytometer (BD Biosciences; San Jose, Calif.). Data were analyzed using FlowJo® software (FlowJo, LLC; Ashland, Oreg.) to determine mean fluorescence intensities. Binding constants were calculated using the statistical software, GraphPad Prism (GraphPad Software; La Jolla, Calif.) using the nonlinear regression equation, one site-specific binding with Hill slope. Secondary antibody alone was used as a control, in addition to measuring non-specific antibody binding to CHO parental cells.

Bmax [MFI] | Binder
24700 | B1
26700 | B2
27300 | B3
26800 | B4
25700 | B5
27400 | B6
25600 | B7
27200 | B8
26400 | B9
27000 | B10
25200 | B11
27400 | B12
23800 | B13

molecular target: T2, Murine folate receptor alpha (mouse, UniProt P35846 25-232); test: FACS, CHO-mFOLR1 cells
T2 construct: Stably expressed on CHO cells (CHO-mFOLR1); also called mouse FOLR1; CHO-mFOLR1
T2 sequence (P35846 25-232 limits assumed): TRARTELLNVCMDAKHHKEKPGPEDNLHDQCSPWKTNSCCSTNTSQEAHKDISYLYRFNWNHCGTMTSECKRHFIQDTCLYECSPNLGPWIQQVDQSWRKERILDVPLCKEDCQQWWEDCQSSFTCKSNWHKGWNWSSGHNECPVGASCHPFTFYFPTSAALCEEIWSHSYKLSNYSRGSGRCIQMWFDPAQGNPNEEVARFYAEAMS

Bmax [MFI] | Binder
18600 | B1
5940 | B2
11800 | B3
1760 | B4
2740 | B5
1390 | B6
1740 | B7
5100 | B8
2220 | B9
3950 | B10
3750 | B11
1990 | B12
1670 | B13

molecular target: T3, Cynomolgus folate receptor alpha (cynomolgus monkey, UniProt P15328 25-234 (human entry)); test: FACS, CHO-cFOLR1 cells
T3 construct: Stably expressed on CHO cells (CHO-cFOLR1); also called cynomolgus FOLR1; CHO-cFOLR1
T3 sequence (P15328 other isoform, or with tags, fused parts or gaps limits assumed): as the sequence (P15328 25-234 limits assumed) above, with I2T, W4R, R37K, Q117R, A146P, H171Y counted along it

Bmax [MFI] | Binder
18500 | B1
17400 | B2
20400 | B3
21800 | B4
14900 | B5
18700 | B6
20700 | B7
24700 | B8
19200 | B9
17200 | B10
21500 | B11
20900 | B12
24200 | B13
